System: TO-N3-2 (biotin conjugate)
Test: pull-down binding Z-score (relative to library population); higher = stronger binding
Details: RNA library: Library-2
Procedure, shortened: (§1)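 Biotin-conjugated small molecule (100 pmol) on streptavidin beads was incubated with 1 μg of heat-folded Cy5- or Cy3-end-labelled RNA library in phosphate/NaCl/KCl buffer at 25 °C for 60 min. Following three washes, RNA was eluted with hot SDS and hybridised at 55.5 °C for 20 h to a DNA barcode microarray. The binding value is a Z-score computed from the library mean and standard deviation, after subtraction of beads without compound and averaging of barcoded replicate probes with the highest and lowest excluded.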

Row | Sequence | pull-down binding Z-score
1 | GUUGCUUAGAUUACAUGUAAC [hsa-mir-890] | 0.419
2 | GUUGGAUGGUCUAAUUGUGAAGCUCCUAAC [hsa-mir-141] | -0.0552
3 | GUUGGCUCAAGAAAGGGAGAUAGAUGGUAGCCC [hsa-mir-6884] | 3.94
4 | GUUGGGAUUGAGUUUUGAACUCGGC [hsa-mir-196a-2] | -0.0161
5 | GUUGGGCAUCCACAGUCUCCCACC [hsa-mir-1911] | 0.612
6 | GUUGGGGAACAGGUGGUUAGCACUUCAU [hsa-mir-5196] | 0.81
7 | GUUGUUGUCUUACUGCGCUCAACAAC [hsa-mir-7-2] | -0.241
8 | GUUGUUGUGAGCAAUAGUAAGGAAGCAAU [hsa-mir-34a] | 0.486
9 | GUUGUUUUUAGAUAACUAAAUCGACAAC [hsa-mir-7-1] | 0.0256
10 | GUUUACGUGAUUCCUGGUUAAUC [hsa-mir-376b] | -0.0759
11 | GUUUAUUUUGUAGC [hsa-mir-4317] | -0.593
12 | GUUUCUAAAAAAAUAAAAAGUUAAAAAAAUUUAUGUUAACGUGUAAUGUGUUUACUAAUUUUUUUUUUUUUUUUUGGAGAC [hsa-mir-3908] | -0.771
13 | GUUUCUGUUGUCUGAAAGGAAAGAAAG [hsa-mir-520e] | 0.25
14 | GUUUGAUAGUUUAGACACAAAC [hsa-mir-3591] | -0.389
15 | GUUUGCAAGGGGUGUUUCUGUCCAUGGUCAGGC [hsa-mir-4283-1_4283-2] | 0.725
16 | GUUUGCCUGUUAAUGAAUUCAAAC [hsa-mir-3129] | 0.0357
17 | GUUUGGCAGGACAGUUUCCAAGC [hsa-mir-6779] | 0.15
18 | GUUUGGGUGCGGUUGGGAGUCUCUAAU [hsa-mir-200c] | 1.41
19 | GUUUUACUAUGAUGAGGUGUGCCAUCCACCCCAUCAUAGUAAAC [hsa-mir-606] | -0.698
20 | GUUUUUUAAGAGGAAGGGAGACCUAAGCUAGCA [hsa-mir-4481] | 0.747
21 | UAAAGAGUAUUCAACAUC [hsa-mir-1245b] | -0.373
22 | UAAGAGUAAUAGCUCUCUAGGUUAUUAUGAAUA [hsa-mir-5692c-1] | -0.712
23 | UAAGUGUCCUAGCACUUA [hsa-mir-374b] | -0.647
24 | UAAGUGUUAUAGCACUUA [hsa-mir-374a] | -1.79
25 | UAAGUUGUGAUCAUACCA [hsa-mir-1273g] | 0.165

Row | Sequence | pull-down binding Z-score
26 | UAAUAACUGACAAACAGACAAUUG [hsa-mir-4774] | -0.303
27 | UAAUAGCAAUCCUUAAAUGCCAUUA [hsa-mir-4477b] | -1.16
28 | UAAUAUGCACUAUAAAUAUAUUG [hsa-mir-450a-1] | -1.33
29 | UAAUAUGUAAUAUAAAUGUAUUG [hsa-mir-450a-2] | -0.926
30 | UAAUCACAGGCCACAUUUCUGAAUA [hsa-mir-1295b] | -0.437
31 | UAAUGAUUGGAGUCAUUUUCAGAGCAUUA [hsa-mir-3202-1] | -0.537
32 | UAAUGCUCUGAAAAUGACUCCAAUCAUUA [hsa-mir-3202-2] | -0.457
33 | UACAAUUUUUUUUUUUUUAAAUUUUA [hsa-mir-1303] | -1.17
34 | UACAUAGUUCAUGCUGAGGCCGGGAUUUCAUGCAGAAAACUGGUUGCAAAAGGUGCUGAAG [hsa-mir-6085] | 1.13
35 | UACUAACAGCACUGGAGGGUGUA [hsa-mir-142] | 0.533
36 | UAGACAAUGGUUUCAUCAUUUCGUCUG [hsa-mir-4427] | -0.052
37 | UAGAGGGUAAAAUUAAUAACCUUCUA [hsa-mir-628] | -0.888
38 | UAGAGUAGGAGAGCCCACUGA [hsa-mir-6846] | 1.21
39 | UAGAUACUCAGGAGGGUGAGUAUCUA [hsa-mir-5689] | -0.726
40 | UAGAUGAAUAAAUGAAUGACUCAUCA [hsa-mir-545] | -0.21
41 | UAGAUGUUAUAAAAAUAUAUAUCUG [hsa-mir-4680] | -1.07
42 | UAGGAGCUGUGCCUCCUGGCCUAUUCCUGUUCGUG [hsa-mir-8056] | 0.623
43 | UAGGAUUUGGGAGUUAUACUA [hsa-mir-5690] | -0.349
44 | UAGGCCCACUGCUCAGUGGAGC [hsa-mir-7847] | 0.845
45 | UAGGCUGUGCAGGUCCCAAUGGGCCUA [hsa-mir-26a-1] | 0.528
46 | UAGGCUGUUUCCAUCUGUGAGGCCUA [hsa-mir-26a-2] | -0.00853
47 | UAGGGCGCGGAGGGCGGACCGGGAA [hsa-mir-638] | 4.4
48 | UAGGGCUGGAUGGUAGGGCCCA [hsa-mir-6890] | 1.13
49 | UAGGUGGUCGAAGUCAUCCACA [hsa-mir-7153] | 0.498
50 | UAGGUUGUGUGCUGUCCAGCCUG [hsa-mir-26b] | 0.271

Row | Sequence | pull-down binding Z-score
51 | UAGGUUGUUAUUUAAUCCAACU [hsa-mir-190a] | -0.661
52 | UAGUACAGGUGAGAUUGUACUG [hsa-mir-3920] | -0.564
53 | UAGUCUAAUAGGGACUA [hsa-mir-5681b] | -1.21
54 | UAGUGGAAAGAGCACUG [hsa-mir-378b] | -0.274
55 | UAUAACUUGAAGAAUUCAAAUAGUCAUG [hsa-mir-3146] | -0.75
56 | UAUAGCUACAUCAGUUAUAACUAUAUCAGUUAAA [hsa-mir-5582] | 0.00457
57 | UAUAGGAAGGAAAUCUUAU [hsa-mir-6129] | -0.517
58 | UAUAGUGUGUUUGAUUUGCACUGUA [hsa-mir-4703] | -1.07
59 | UAUAUACUGAUGUAAUUUUCCUUGGAUUUAUAUGCAGUACUGAG [hsa-mir-6130] | -0.225
60 | UAUAUGCUUUUUAAAUGGGGCACAGA [hsa-mir-5586] | -0.177
61 | UAUAUUCGGUUUAUUGACAUGGAAUAUA [hsa-mir-381] | -0.284
62 | UAUCUAUAUAUAUGUGUA [hsa-mir-3171] | 0.835
63 | UAUGAAGGUAAGCAUUUUUGUA [hsa-mir-3935] | -0.419
64 | UAUGACCAGGCCAUAGUAAACAUCAUA [hsa-mir-4744] | -0.124
65 | UAUGCAAAGCUCUGACAGUGUUUCACUUGCUA [hsa-mir-7848] | -0.0647
66 | UAUGCCAUUAAAAGUAAUGGUAAA [hsa-mir-548aj-1] | -1.2
67 | UAUGCCUACAAAAUCCCUCCAGACUGGCAUA [hsa-mir-4666a] | -0.743
68 | UAUGUGAUUCUACUGCUCACUCAUAUA [hsa-mir-135a-1] | -0.519
69 | UAUUCGCUUUAUUGACUUCGAAUA [hsa-mir-369] | -0.736
70 | UAUUCUCUAU [hsa-mir-2054] | -0.297
71 | UAUUCUGAUGUCCAAGUGGAAA [hsa-mir-372] | -0.504
72 | UAUUGCAAAGAUUUUCAAUA [hsa-mir-3915] | -1.1
73 | UAUUGGGCCAAUUCCCCCAAUG [hsa-mir-4781] | -1.12
74 | UAUUGUGUUGAUCAACAAUA [hsa-mir-5590] | -0.668

System: TO-3-N3-2 (biotin conjugate)
Test: as above
Details: RNA library: Library-2
Procedure, shortened: as §1

Row | Sequence | pull-down binding Z-score
75 | GUUGCUUAGAUUACAUGUAAC [hsa-mir-890] | -0.214
76 | GUUGGAUGGUCUAAUUGUGAAGCUCCUAAC [hsa-mir-141] | -0.259
77 | GUUGGCUCAAGAAAGGGAGAUAGAUGGUAGCCC [hsa-mir-6884] | 1.51
78 | GUUGGGAUUGAGUUUUGAACUCGGC [hsa-mir-196a-2] | -0.0929
79 | GUUGGGCAUCCACAGUCUCCCACC [hsa-mir-1911] | -0.322
80 | GUUGGGGAACAGGUGGUUAGCACUUCAU [hsa-mir-5196] | 0.521
81 | GUUGUUGUCUUACUGCGCUCAACAAC [hsa-mir-7-2] | -0.285
82 | GUUGUUGUGAGCAAUAGUAAGGAAGCAAU [hsa-mir-34a] | 0.501
83 | GUUGUUUUUAGAUAACUAAAUCGACAAC [hsa-mir-7-1] | 0.0396
84 | GUUUACGUGAUUCCUGGUUAAUC [hsa-mir-376b] | -0.0636
85 | GUUUAUUUUGUAGC [hsa-mir-4317] | -0.0511
86 | GUUUCUAAAAAAAUAAAAAGUUAAAAAAAUUUAUGUUAACGUGUAAUGUGUUUACUAAUUUUUUUUUUUUUUUUUGGAGAC [hsa-mir-3908] | 0.349
87 | GUUUCUGUUGUCUGAAAGGAAAGAAAG [hsa-mir-520e] | -0.346
88 | GUUUGAUAGUUUAGACACAAAC [hsa-mir-3591] | 0.11
89 | GUUUGCAAGGGGUGUUUCUGUCCAUGGUCAGGC [hsa-mir-4283-1_4283-2] | 0.154
90 | GUUUGCCUGUUAAUGAAUUCAAAC [hsa-mir-3129] | 0.248
91 | GUUUGGCAGGACAGUUUCCAAGC [hsa-mir-6779] | -0.323
92 | GUUUGGGUGCGGUUGGGAGUCUCUAAU [hsa-mir-200c] | 1.39
